What all share (conditions): protein: recombinant; tags: MBP fusion; label: 3' biotin; blunt
Data set [1] concerns the target T1, MBP-SNZ (Arabidopsis thaliana, UniProt Q6PV67 1-325). The data set can be described thus: EMSA; poly(dI-dC), 5 mM MgCl2; LightShift EMSA binding buffer, 50 ng poly(dI-dC), 2.5% glycerol, 0.06% NP-40, 5 mM MgCl2, 19 mg BSA (so in the source), 28 ug protein, 5 pmol probe, 30 min room temperature; pH and salt not given.
The target in data set [2] is T1, MBP-SNZ. The data set can be described thus: EMSA; poly(dI-dC), 5 mM MgCl2; unlabeled probe (50x, 250x) inhibited binding; LightShift EMSA binding buffer, 50 ng poly(dI-dC), 2.5% glycerol, 0.06% NP-40, 5 mM MgCl2, 19 mg BSA (so in the source), 28 ug protein, 5 pmol probe, 30 min room temperature; pH and salt not given. In general terms: In EMSA bound probe runs differently from free probe, usually more slowly.

For data set [3], the target named is T1, MBP-SNZ. The data set can be described thus: EMSA; poly(dI-dC), 5 mM MgCl2; unlabeled RAV1-A probe reduced binding; LightShift EMSA binding buffer, 50 ng poly(dI-dC), 2.5% glycerol, 0.06% NP-40, 5 mM MgCl2, 19 mg BSA (so in the source), 28 ug protein, 5 pmol probe, 30 min room temperature; pH and salt not given.

T1 sequence (Q6PV67 whole entry): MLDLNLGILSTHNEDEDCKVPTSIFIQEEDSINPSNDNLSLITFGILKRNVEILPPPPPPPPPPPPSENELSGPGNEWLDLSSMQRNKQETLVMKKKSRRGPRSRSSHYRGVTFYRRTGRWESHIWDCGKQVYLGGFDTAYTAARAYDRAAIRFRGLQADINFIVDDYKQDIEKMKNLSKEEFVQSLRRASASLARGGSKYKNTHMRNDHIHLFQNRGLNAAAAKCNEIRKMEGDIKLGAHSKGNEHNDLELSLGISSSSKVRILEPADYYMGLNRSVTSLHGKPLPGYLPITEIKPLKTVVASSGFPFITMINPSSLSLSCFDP

B1: mRAV1-A probe (dsDNA)
DNA 1: CACCTGCGGTACGGTACGGTACGGTACGGTACGGTACACCTG
DNA 2: CAGGTGTACCGTACCGTACCGTACCGTACCGTACCGCAGGTG
In the case of B1, the binding result in data set [1] was “no binding”.

B2: ABI5 probe (dsDNA)
DNA 1: TTAACAACTGCATCATATACACAACAATAAC
DNA 2: GTTATTGTTGTGTATATGATGCAGTTGTTAA
Take B2: the binding result in data set [2] is given as “binds”.

B3: wRAV1-A probe (dsDNA)
DNA 1: CACCTGCAACACAACACAACACAACACAACACAACACACCTG
DNA 2: CAGGTGTGTTGTGTTGTGTTGTGTTGTGTTGTGTTGCAGGTG
For the molecule B3, the binding result in data set [3] is “binds”.

For the origin of these results see article PMC3662786, “miR172b Controls the Transition to Autotrophic Development Inhibited by ABA in Arabidopsis”.
